Patent US20090148436A1 (Pfizer, published 2009)

Columns and labels:
[1] = molecular target: T1, mature human GDF8 (growth and differentiation factor-8, myostatin) (human, UniProt O14793 267-375); assay: soluble ActRIIB as competitor: inhibition of the binding of biotinylated GDF8 (20 ng/ml) to plate-coated ActRIIB-Fc; axis OD 450 nm
T1 construct: Recombinant mature GDF8 dimer purified from CHO cell conditioned media; It was biotinylated (Sulfo-NHS-Biotin) in the direct ELISA, the BIAcore work and the ActRIIB plate assay, and unlabeled in the sandwich ELISAs; In the peptide array Cys was replaced by Ser; also called mature GDF-8; GDF-8 dimer

[2] = molecular target: T1, mature human GDF8 (growth and …); assay: BIAcore 2000, RK22 over biotinylated GDF-8 on Sensor Chip SA; Bivalent model (global analysis), ka1/kd1, row Average of three independent experiments
[3] = molecular target: T1, mature human GDF8 (growth and …); assay: ELISA: antibody titrated on biotinylated GDF8 held on a streptavidin plate (title SA/BIO GDF8 BINDING ELISA), OD 450 nm
[4] = molecular target: T1, mature human GDF8 (growth and …); assay: BIAcore 2000, RK22 (lot PK1901, activity 82.54 %) over biotinylated GDF-8 on Sensor Chip SA; 42.4 RU (6.14.03), Bivalent model (global analysis), ka1/kd1, Rmax 49.2, Chi2 0.299
[5] = molecular target: T1, mature human GDF8 (growth and …); assay: BIAcore 2000, RK22 (lot PK1901, activity 82.54 %) over biotinylated GDF-8 on Sensor Chip SA; 71 RU (2.6.03), Bivalent model (global analysis), ka1/kd1, Rmax 53.00, Chi2 0.84
[6] = molecular target: T1, mature human GDF8 (growth and …); assay: BIAcore 2000, RK22 (lot PK1901, activity 82.54 %) over biotinylated GDF-8 on Sensor Chip SA; 42.4 RU (6.14.03), Langmuir model (global analysis), Rmax 39.4, Chi2 3.67
[7] = molecular target: T1, mature human GDF8 (growth and …); assay: BIAcore 2000, RK22 (lot PK1901, activity 82.54 %) over biotinylated GDF-8 on Sensor Chip SA; 45 RU (4.30.03), Langmuir model (global analysis), Rmax 84.00, Chi2 2.12
[8] = molecular target: T1, mature human GDF8 (growth and …); assay: BIAcore 2000, RK22 over biotinylated GDF-8 on Sensor Chip SA; Langmuir model (global analysis), row Average of three independent experiments
[9] = molecular target: T1, mature human GDF8 (growth and …); assay: cell-based or functional assay
[10] = molecular target: T1, mature human GDF8 (growth and …); assay: BIAcore 2000, RK22 (lot PK1901, activity 82.54 %) over biotinylated GDF-8 on Sensor Chip SA; 71 RU (2.6.03), Langmuir model (global analysis), Rmax 44.00, Chi2 7.47
[11] = molecular target: T1, mature human GDF8 (growth and …); assay: sandwich ELISA: RK22 coated, GDF-8 titrated, biotinylated RK35 as detector, in THST; the concentration is that of GDF-8
[12] = molecular target: T1, mature human GDF8 (growth and …); assay: BIAcore 2000, RK22 (lot PK1901, activity 82.54 %) over biotinylated GDF-8 on Sensor Chip SA; 45 RU (4.30.03), Bivalent model (global analysis), ka1/kd1, Rmax 84.00, Chi2 1.29
[13] = molecular target: T2, mature BMP11 (human, UniProt O95390 299-407); assay: ELISA: antibody titrated on biotinylated BMP11 held on a streptavidin plate (title SA/BIO BMP11 ELISA), OD 450 nm
T2 construct: mature; it is not certain that 'human' covers BMP11; It was biotinylated in the ELISA; also called biotinylated BMP11

[14] = molecular target: T1, mature human GDF8 (growth and …); assay: SPR (BIAcore 2000), biotinylated GDF-8 on streptavidin chip, antibody 2.3-300 nM in solution
[15] = molecular target: T1, mature human GDF8 (growth and …); assay: inhibition of the binding of biotinylated GDF8 (20 ng/ml), preincubated with the titrated protein, to plate-coated ActRIIB-Fc; axis OD 450 nm

T2 sequence (O95390 299-407): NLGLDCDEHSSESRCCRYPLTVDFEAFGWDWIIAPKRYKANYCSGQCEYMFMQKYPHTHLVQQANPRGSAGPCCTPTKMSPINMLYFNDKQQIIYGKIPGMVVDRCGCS

B1: Recombinant ActRIIB-Fc chimera (R&D Systems, Cat. No. 339-RB/CF) (Fc fusion)
chain: SGRGEAETRECIYYNANWELERTNQSGLERCEGEQDKRLHCYASWRNSSGTIELVKKGCWLDDFNCYDRQECVATEENPQVYFCCCEGNFCNERFTHLPEAGGPEVTYEPPPTAPT
notes: Bought construct; also called ActRIIB fusion protein; ActIIRB; Fc part of the bought chimera not given
- IC50 (read off the curve) [1]: ~0.3 nM

B2: RK22 murine monoclonal anti-GDF8 antibody (antibody, V domains shown)
VH: QVQLQQSGAELARPGASVKLSCKASGYTFTSYWMQWVKQRPGQGLEWIGAIYPGDGDTRYTQKFKGKATLTADKSSSTAYMQLSSLASEDSAVYYCARMGGYDRYYFDYWGQGTTLTVSS
VL: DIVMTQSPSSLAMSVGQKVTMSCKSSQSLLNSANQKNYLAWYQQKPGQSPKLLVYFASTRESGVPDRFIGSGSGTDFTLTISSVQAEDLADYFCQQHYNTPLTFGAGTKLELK
notes: Mouse monoclonal from a hybridoma (GDF8 knockout mice); It was biotinylated when used as the ELISA detector; also called RK22 antibody; biotinylated RK22
- Ka [2]: 8.44e+07 M⁻¹
- Kd [2]: 15.2 nM
- koff [2]: 0.000708 s⁻¹
- kon [2]: 61600 M⁻¹ s⁻¹
- EC50 [3]: 0.193 µg/mL
- Ka [4]: 1.09e+08 M⁻¹
- Kd [4]: 9.14 nM
- koff [4]: 0.000714 s⁻¹
- kon [4]: 78100 M⁻¹ s⁻¹
- Ka [5]: 1.07e+08 M⁻¹
- Kd [5]: 9.33 nM
- koff [5]: 0.00078 s⁻¹
- kon [5]: 83600 M⁻¹ s⁻¹
- Ka [6]: 3.24e+08 M⁻¹
- Kd [6]: 3.09 nM
- koff [6]: 0.000482 s⁻¹
- kon [6]: 156000 M⁻¹ s⁻¹
- Ka [7]: 7.28e+07 M⁻¹
- Kd [7]: 13.7 nM
- koff [7]: 0.000633 s⁻¹
- kon [7]: 46100 M⁻¹ s⁻¹
- Ka [8]: 2.18e+08 M⁻¹
- Kd [8]: 6.89 nM
- koff [8]: 0.000562 s⁻¹
- kon [8]: 116000 M⁻¹ s⁻¹
- IC50, pGL3(CAGA)12 luciferase reporter in A204 cells treated with 10 ng/ml GDF8 [9]: 0.4 nM
- Ka [10]: 2.58e+08 M⁻¹
- Kd [10]: 3.88 nM
- koff [10]: 0.000572 s⁻¹
- kon [10]: 147000 M⁻¹ s⁻¹
- EC50 (read off the curve) [11]: ~0.0003 µg/mL
- Ka [12]: 3.67e+07 M⁻¹
- Kd [12]: 27.3 nM
- koff [12]: 0.00063 s⁻¹
- kon [12]: 23100 M⁻¹ s⁻¹
- EC50 [13]: 61.2 µg/mL
- Kd [14]: 7 nM

B3: MYO-029 human IgG1 anti-GDF-8 antibody (antibody, V domains shown)
VH: QVQLVQSGAEVKKPGASVKVSCKASGYTFTSYYMHWVRQAPGQGLEWMGIINPSGGSTSYAQKFQGRVTMTRDTSTSTVYMELSSLRSEDTAVYYCARDENWGFDPWGQGTLVTVSS
VL: SYELTQPPSVSVSPGQTATITCSGHALGDKFVSWYQQGSGQSPVLVIYDDTQRPSGIPGRFSGSNSGNTATLTISGTQAMDEADYFCQAWDSSFVFGGGTKVTVL
- IC50 (read off the curve) [15]: ~0.3 nM
